# In PMC2432501, “Binding to the Minor Groove of the Double-Strand, Tau Protein Prevents DNA from Damage by Peroxidation”:
# B1: 14 bp DNA (dsDNA)
# DNA 1: ACCGTGCATAAATAA
# DNA 2: CTTATTTATGCACGG
# B2: 12 bp DNA (dsDNA)
# DNA 1: AGTGCATAAATAA
# DNA 2: CTTATTTATGCAC
# B3: 13 bp DNA (dsDNA)
# DNA 1: ACGTGCATAAATAA
# DNA 2: CTTATTTATGCACG
# B4: 20 bp DNA (dsDNA)
# DNA 1: AACGAGAAGCGCGATCACAT
# DNA 2: ATGTGATCGCGCTTCTCGTT
# B5: 26 bp DNA (dsDNA)
# DNA 1: ACTCCGTGCATAAATAATAGGCACTCG
# DNA 2: CCGAGTGCCTATTATTTATGCACGGAG
# Legend:
# tau23 [1] = biological target: T1, tau23 (human, UniProt P10636-2 1-352); assay: EMSA; retardation depends on tau/DNA ratio; 20 mM Tris pH 7.2, 50 mM NaCl, 0.5 mM DTT, 1 mM MgCl2, 0.5 mM EDTA, room temperature 20-30 min; native PAGE in 1xTBE (20% gel at 4 C, or 8% for the 26 bp assay); conditions: protein: recombinant; 5' overhang 1 nt at both ends
# tau23 [2] = biological target: T1, tau23; assay: AFM; protein/DNA 8/1; particle 8.54 nm vs 7.82 nm tau alone; 20 mM Tris pH 7.2, 50 mM NaCl, 0.5 mM DTT, 1 mM MgCl2, 0.5 mM EDTA, room temperature 20-30 min; native PAGE in 1xTBE (20% gel at 4 C, or 8% for the 26 bp assay); conditions: protein: recombinant; 5' overhang 1 nt at both ends
# tau23 [3] = biological target: T1, tau23; assay: EMSA; 20 mM Tris pH 7.2, 50 mM NaCl, 0.5 mM DTT, 1 mM MgCl2, 0.5 mM EDTA, room temperature 20-30 min; native PAGE in 1xTBE (20% gel at 4 C, or 8% for the 26 bp assay); conditions: protein: recombinant; 5' overhang 1 nt at both ends
# tau23 [4] = biological target: T1, tau23; assay: EMSA; marked shift from [protein]/[DNA] 1/2; 2.5 uM DNA; 20 mM Tris pH 7.2, 50 mM NaCl, 0.5 mM DTT, 1 mM MgCl2, 0.5 mM EDTA, room temperature 20-30 min; native PAGE in 1xTBE (20% gel at 4 C, or 8% for the 26 bp assay); conditions: protein: recombinant; blunt
# tau23 [5] = biological target: T1, tau23; assay: EMSA; shift from [tau]/[bp] 1/100, greatest at 1/3; 20 mM Tris pH 7.2, 50 mM NaCl, 0.5 mM DTT, 1 mM MgCl2, 0.5 mM EDTA, room temperature 20-30 min; native PAGE in 1xTBE (20% gel at 4 C, or 8% for the 26 bp assay); conditions: protein: recombinant; 5' overhang 1 nt at both ends
# T1 sequence (P10636 other isoform, or with tags, fused parts or gaps): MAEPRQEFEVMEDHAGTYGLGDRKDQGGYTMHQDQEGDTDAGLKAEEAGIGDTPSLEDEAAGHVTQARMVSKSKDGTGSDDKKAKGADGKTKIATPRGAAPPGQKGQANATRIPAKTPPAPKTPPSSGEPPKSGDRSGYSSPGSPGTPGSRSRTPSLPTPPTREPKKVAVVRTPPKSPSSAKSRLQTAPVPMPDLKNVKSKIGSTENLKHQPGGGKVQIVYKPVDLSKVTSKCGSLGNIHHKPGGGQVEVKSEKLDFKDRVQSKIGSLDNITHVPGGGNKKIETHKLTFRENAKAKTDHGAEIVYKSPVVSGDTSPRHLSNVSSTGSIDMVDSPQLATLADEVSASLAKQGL
binder,measurement,setting,value
B1,binding result,tau23 [1],binds
B2,binding result,tau23 [2],no binding
B3,binding result,tau23 [3],binds
B4,binding result,tau23 [4],binds
B5,binding result,tau23 [5],binds
